Reference: article PMC4828312 (Journal of neurochemistry, 2016)

B1: Helix-A peptide of gp120 (peptide)
peptide: NDMVEQMHEDIISLWDQSLK
B2: Human recombinant tubulin β-3 (TUBB3) (natural protein)
chain: MREIVHIQAGQCGNQIGAKFWEVISDEHGIDPSGNYVGDSDLQLERISVYYNEASSHKYVPRAILVDLEPGTMDSVRSGAFGHLFRPDNFIFGQSGAGNNWAKGHYTEGAELVDSVLDVVRKECENCDCLQGFQLTHSLGGGTGSGMGTLLISKVREEYPDRIMNTFSVVPSPKVSDTVVEPYNATLSIHQLVENTDETYCIDNEALYDICFRTLKLATPTYGDLNHLVSATMSGVTTSLRFPGQLNADLRKLAVNMVPFPRLHFFMPGFAPLTARGSQQYRALTVPELTQQMFDAKNMMAACDPRHGRYLTVATVFRGRMSMKEVDEQMLAIQSKNSSYFVEWIPNNVKVAVCDIPPRGLKMSSTFIGNSTAIQELFKRISEQFTAMFRRKAFLHWYTGEGMDEMEFTEAESNMNDLVSEYQQYQDATAEEEGEMYEDDEEESEAQGPK

Experiments:
[1] = target: B2; assay: SPR
[2] = target: HIV-1 envelope glycoprotein gp120, strain IIIB (HIV-1 (strain IIIB), UniProt P04578 33-511); assay: SPR

Binder | binding result [1] | Kd [2] [nM]
B1 | binds | 
B2 |  | 7.5
